From patent US20190309018A1
Like-named read-outs stand apart in the source and are kept apart here. Square brackets hold non-standard residues; d marks the D form. Ends that are not written are not given here. Cya = N[C@@H](CS(=O)(=O)O)C(=O)O

Columns and labels:
[1] = biological target: integrins (on human umbilical vein endothelial cells, HUVEC) (human); experiment: cell-based or functional assay
[2] = biological target: integrins (on human umbilical vein endothelial cells, HUVEC) (human); experiment: cell-based or functional assay; remark: listed apart in the source

Row | Molecule | inhibition of HUVEC wound healing (scratch assay on fibronectin coated surface; peptide 1 mM) after 24 hours [1] | inhibition of cell adhesion in a model of wound healing using HUVEC, 12 hours [1] | inhibition of HUVEC wound healing (scratch assay on fibronectin coated surface; peptide 10 mM) after 24 hours [2] | inhibition of cell adhesion in a model of wound healing using HUVEC, 12 hours [2]
1 | Cyclic RGD (RGD-based peptide; N-methylated cyclic-RGDf-N(Me)V; Cilengitide) | 45% | 40% |  | 
2 | GRG[Cya]TP-OH [Glycinyl-Arginyl-Glycinyl-Cysteic-Threonyl-Proline-COOH (GRG Cysteic Acid TP)] |  |  | 70% | 74%
